The target of one assay is T1, AP2M1 (residues 160-435) (Homo sapiens, UniProt Q96CW1).
T1 construct: The AP2M1 fragment (residues 160-435) was cloned into a modified pET28a; His6 (N, cleaved yes); made in house; host or cells: E. coli BL21(DE3)
T1 sequence (Q96CW1 160-435): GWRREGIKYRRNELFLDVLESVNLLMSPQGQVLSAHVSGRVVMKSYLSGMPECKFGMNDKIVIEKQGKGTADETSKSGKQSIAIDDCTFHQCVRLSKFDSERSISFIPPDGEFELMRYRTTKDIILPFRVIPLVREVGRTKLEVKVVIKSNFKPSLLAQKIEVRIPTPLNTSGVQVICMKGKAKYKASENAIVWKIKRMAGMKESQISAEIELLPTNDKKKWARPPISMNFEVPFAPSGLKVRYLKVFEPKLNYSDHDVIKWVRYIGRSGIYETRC
As to the kind of experiment: in vitro peptide pull-down of AP2M1 with IRS1 peptides. Conditions: peptide beads pull-down, SDS-PAGE, Coomassie. Format: binding. Here is the method: FIGS. 2A-I. The MAPK pathway and SHP2 promote insulin-activated IR endocytosis. (FIG. 2A) HepG2 cells expressing IR-GFP WT were starved, treated with the indicated inhibitors for 2 h, treated without or with 100 nM insulin for 20 min, and stained with anti-GFP (IR; green) and DAPI (blue). See also FIG. 7A for representative images. Quantification of the ratios of PM and IC IR-GFP signals of cells was shown (mean±SD; *p<0.0001). (FIG. 2B) Binding of IRS1 peptides to AP2M1 (residues 160-435). Input and proteins bound to IRS1-peptide beads were analyzed by SDS-PAGE and stained with Coomassie (CBB). The relative band intensities are shown below (mean±SD; n=4 independent experiments). (FIG. 2C) ITC analysis of binding between IRS1 peptides and AP2M1 (residue 160-435), with the Kd indicated. (FIG. 2D) The IRS1 peptides were incubated with active SHP2 for the indicated durations, spotted onto membranes, and detected with the anti-pY612-IRS1 antibody. (FIG. 2E) Quantification of the relative SHP2 activity in FIG. 2D (mean±SD; n=4 independent experiments; *p<0.0001). (FIG. 2F) Model of the regulation of insulin-activated IR endocytosis by a phosphorylation switch on IRS1/2. Insulin-bound IR phosphorylates itself and IRS1/2, and activates the PI3K-AKT and MAPK pathways. SHP2 acts upstream of RAS-RAF and promotes the activation of MAPK pathway. p31^comet binds to the IR-bound MAD2 and blocks IR-AP2 association to prevent premature IR endocytosis. In feedback regulation, activated ERK1/2 phosphorylate S616 and other sites on IRS1. […]
For GST pull-down assays of in vitro translated (IVT) IRS1 proteins, beads bound to GST-AP2M1 or GST were incubated with IVT products diluted in the cell lysis buffer at 4° C. for 2 h. After incubation and washing, proteins bound to beads were eluted with the SDS loading buffer, resolved with SDS-PAGE, and detected with Coomassie staining or immunoblotting with the appropriate antibodies. […]

The target of a further assay is T2, SHP2 (Homo sapiens, UniProt Q06124).
T2 construct: purchased SignalChem
T2 sequence (Q06124 1-593): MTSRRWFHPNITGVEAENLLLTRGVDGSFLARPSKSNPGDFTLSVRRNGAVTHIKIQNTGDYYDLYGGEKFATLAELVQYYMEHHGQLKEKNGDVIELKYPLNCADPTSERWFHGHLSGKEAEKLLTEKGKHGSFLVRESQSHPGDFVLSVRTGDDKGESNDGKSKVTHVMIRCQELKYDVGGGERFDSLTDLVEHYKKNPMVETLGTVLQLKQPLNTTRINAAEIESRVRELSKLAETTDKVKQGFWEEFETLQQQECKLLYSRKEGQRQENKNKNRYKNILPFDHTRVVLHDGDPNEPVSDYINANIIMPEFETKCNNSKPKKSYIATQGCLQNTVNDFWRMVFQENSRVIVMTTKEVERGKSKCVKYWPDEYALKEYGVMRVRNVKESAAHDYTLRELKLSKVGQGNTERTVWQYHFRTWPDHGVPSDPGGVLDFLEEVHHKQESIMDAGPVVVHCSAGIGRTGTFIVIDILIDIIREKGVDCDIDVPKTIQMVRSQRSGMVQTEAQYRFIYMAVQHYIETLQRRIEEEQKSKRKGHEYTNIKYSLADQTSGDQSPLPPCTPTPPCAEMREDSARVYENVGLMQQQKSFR
The assay is described as follows: in vitro phosphatase assay, dephosphorylation of IRS1 peptides by active SHP2. Type of assay: biochemical. To be noted: doubly versus singly phosphorylated IRS1 peptide; active SHP2 2.9 μM, peptide 2.6 mM, 37° C. An excerpt:
To assess whether serine phosphorylation (pS616) of the YMPMS motif (SEQ ID NO:13) promotes dephosphorylation of pY612 by SHP2, its dephosphorylation kinetics were examined. […] Decreased IRS1 pS616 has been correlated with increased pY608 in vivo (Bard-Chapeau et al., 2005), and therefore, aside from directly augmenting the IRS1-AP2M1 interaction, ERK1/2-dependent phosphorylation of IRS1 indirectly promotes AP2M1 binding through enhancing the dephosphorylation of IRS1 by SHP2. Consistent with a role of ERK1/2-dependent phosphorylation of IRS1 in IR endocytosis, expression of the RNAi-resistant IRS1 phospho-mimicking mutant (3SD), but not the phospho-deficient mutant (3SA), restored IR endocytosis in 293FT cells depleted of IRS1/2 (FIG. 1G and FIG. 6E).
Active SHP2 (2.9 μM, SignalChem) diluted in the phosphatase dilution buffer (50 mM imidazole, pH 7.2, 0.2% 2-mercaptoethanol, 65 ng/μl BSA) was incubated with IRS1 peptides (2.6 mM) at 37° C. for the indicated time points. Two microliters of reaction products were spotted onto 0.45 m nitrocellulose membrane (BioRad) and dried completely. The membrane was blocked with 5% nonfat milk in TBS for 1 h, and washed once with TBS-T (0.02% Tween 20). […] The membranes were scanned with the Odyssey Infrared Imaging System (LI-COR, Lincoln, Nebr.) for quantification.

This is an account of results in US11426422B2, “SHP2 inhibitors and methods of use thereof” (Research Development Foundation, priority 2018, dated 2022).

Where no end group is shown, it is not given here. [ ]: non-standard residue; d: D form. pY = N[C@@H](Cc1ccc(OP(=O)(O)O)cc1)C(=O)O; pS = N[C@@H](COP(=O)(O)O)C(=O)O

On to “pYMPMpS: doubly phosphorylated IRS1 peptide CHTDDGpYMPMpSPGVA (SEQ ID NO:16) (CHTDDG[pY]MPM[pS]PGVA)”, for which, in the assay with AP2M1 (residues 160-435), the “binding to AP2M1” value is given as “abolished AP2M1 binding”. The “dephosphorylation of pY612 by SHP2” value in the assay with SHP2 is on record as “promoted pY612 dephosphorylation by SHP2”.
